{"source": "paper PMC5938345", "key": {"[1]": {"target": "gp350-ECDFL-Fc_(mIgG2a) (Epstein-Barr virus (strain M81) | mouse) (UniProt P03200)", "assay": "SPR; Biacore T200; the three recombinant gp350s immobilised on CM5 chip at pH 5.5 with low RU to avoid avidity; MBP-hCR2 SCR1-2 injected at 30 µl/min; regeneration with 10 mM glycine-HCl pH 1.5; 1:1 fit"}, "[2]": {"target": "gp350-ECD123-6His (Epstein-Barr virus (strain M81)) (UniProt P03200)", "assay": "SPR; Biacore T200; the three recombinant gp350s immobilised on CM5 chip at pH 5.5 with low RU to avoid avidity; MBP-hCR2 SCR1-2 injected at 30 µl/min; regeneration with 10 mM glycine-HCl pH 1.5; 1:1 fit"}, "[3]": {"target": "gp350-ECD123-Fc_(mIgG2a) (Epstein-Barr virus (strain M81) | mouse) (UniProt P03200)", "assay": "SPR; Biacore T200; the three recombinant gp350s immobilised on CM5 chip at pH 5.5 with low RU to avoid avidity; MBP-hCR2 SCR1-2 injected at 30 µl/min; regeneration with 10 mM glycine-HCl pH 1.5; 1:1 fit"}, "[4]": {"target": "gp350-ECD123-Fc_(mIgG2a) (Epstein-Barr virus (strain M81) | mouse) (UniProt P03200)", "assay": "AUC; sedimentation velocity, 20°C, PBS, 35,000 rpm, samples diluted to 1 OD at 280 nm; c(s) and c(M) in Sedfit"}, "[5]": {"target": "gp350-ECD123-Fc_(mIgG2a) (Epstein-Barr virus (strain M81) | mouse) (UniProt P03200)", "assay": "SDS-PAGE under reducing and non-reducing conditions with Western blot; 15 µl supernatants of passage 1 baculovirus stocks, with and without β-ME, 10% SDS-PAGE; detected by anti-His or anti-mouse Fc antibody"}, "[6]": {"target": "gp350-ECDFL-Fc_(mIgG2a) (Epstein-Barr virus (strain M81) | mouse) (UniProt P03200)", "assay": "AUC; sedimentation velocity, 20°C, PBS, 35,000 rpm, samples diluted to 1 OD at 280 nm; c(s) and c(M) in Sedfit"}, "[7]": {"target": "gp350-ECDFL-Fc_(mIgG2a) (Epstein-Barr virus (strain M81) | mouse) (UniProt P03200)", "assay": "SDS-PAGE under reducing and non-reducing conditions with Western blot; 15 µl supernatants of passage 1 baculovirus stocks, with and without β-ME, 10% SDS-PAGE; detected by anti-His or anti-mouse Fc antibody"}}}
{"substance": "MBP-hCR2 SCR1-2 (domain or fragment)", "values": [{"measurement": "Kd", "setting": "[1]", "result": 68.5, "unit": "nM"}, {"measurement": "koff", "setting": "[1]", "result": 0.0012, "unit": "s⁻¹"}, {"measurement": "kon", "setting": "[1]", "result": 17600, "unit": "M⁻¹ s⁻¹"}, {"measurement": "Kd", "setting": "[2]", "result": 294, "unit": "nM"}, {"measurement": "koff", "setting": "[2]", "result": 0.00141, "unit": "s⁻¹"}, {"measurement": "kon", "setting": "[2]", "result": 4780, "unit": "M⁻¹ s⁻¹"}, {"measurement": "Kd", "setting": "[3]", "result": 94.6, "unit": "nM"}, {"measurement": "koff", "setting": "[3]", "result": 0.00383, "unit": "s⁻¹"}, {"measurement": "kon", "setting": "[3]", "result": 40500, "unit": "M⁻¹ s⁻¹"}]}
{"substance": "gp350-ECD123-Fc_(mIgG2a) (from UniProt P03200-1 1-425) (Fc fusion)", "values": [{"measurement": "stoichiometry N", "setting": "[4]", "result": 2}, {"measurement": "stoichiometry N", "setting": "[5]", "result": 2}]}
{"substance": "gp350-ECDFL-Fc_(mIgG2a) (from UniProt P03200-1 1-803) (Fc fusion)", "values": [{"measurement": "stoichiometry N", "setting": "[6]", "result": 2}, {"measurement": "stoichiometry N", "setting": "[7]", "result": 2}]}
